In publication PMC4722456:

target: actin from chicken skeletal muscle (filamentous) (chicken) (UniProt P68139)

“Drosophila melanogaster indirect flight muscle myosin subfragment 1, double mutant R759E/N509K (domain or fragment)” and “Drosophila melanogaster indirect flight muscle myosin subfragment 1, converter mutant R759E (domain or fragment)” are within 1.5-fold of each other in Km for actin of the actin-activated Mg2+-ATPase (Michaelis-Menten fit): 3.58 µM for the first, 4.99 µM for the second.

“Drosophila melanogaster indirect flight muscle myosin subfragment 1, wild type (domain or fragment)” gave a Km for actin of the actin-activated Mg2+-ATPase (Michaelis-Menten fit) of 5.77 µM.
